Assay results: the supplement of paper PMC11246515
± gives the standard deviation of the averaged measurements.

Assay: total protein half-life in vivo (active degradation + dilution); higher = more stable protein
[1] = E. coli NCM3722 delta-clpP delta-lon delta-hslV, growth: N-lim chemostat, doubling time 6 h
[2] = E. coli NCM3722 delta-clpP, growth: N-lim chemostat, doubling time 6 h
[3] = E. coli NCM3722 delta-hslV, growth: N-lim chemostat, doubling time 6 h
[4] = E. coli NCM3722 delta-lon, growth: N-lim chemostat, doubling time 6 h
[5] = E. coli NCM3722 delta-smpB, growth: N-lim chemostat, doubling time 6 h
[6] = wild type E. coli NCM3722, growth: C-lim chemostat, doubling time 3 h
[7] = wild type E. coli NCM3722, growth: C-lim chemostat, doubling time 6 h
[8] = wild type E. coli NCM3722, growth: C-lim chemostat, doubling time 12 h
[9] = wild type E. coli NCM3722, growth: N-lim chemostat, doubling time 6 h
[10] = wild type E. coli NCM3722, growth: N-lim chemostat, doubling time 12 h
[11] = wild type E. coli NCM3722, growth: P-lim chemostat, doubling time 6 h
[12] = wild type E. coli NCM3722, growth: P-lim chemostat, doubling time 12 h

MKRIAFVFSTAPHGTAAGREGLDALLATSALTDDLAVFFIADGVFQLLPGQKPDAVLARDYIATFKLLGLYDIEQCWVCAASLRERGLDPQTPFVVEATPLEADALRRELANYDVILRF
total protein half-life in vivo [1]: 5 ± 0.57 h
total protein half-life in vivo [2]: 4.73 h
total protein half-life in vivo [3]: 4.7 ± 0.82 h
total protein half-life in vivo [4]: 5.18 ± 0.19 h
total protein half-life in vivo [5]: 4.61 ± 0.23 h
total protein half-life in vivo [6]: > 4 h
total protein half-life in vivo [7]: 6 ± 0.18 h
total protein half-life in vivo [8]: 11.2 ± 0.57 h
total protein half-life in vivo [9]: 4.83 ± 0.091 h
total protein half-life in vivo [10]: 7.67 ± 0.38 h
total protein half-life in vivo [11]: 5.89 ± 1.2 h
total protein half-life in vivo [12]: 13.9 ± 2.3 h

MPIYQIDGLTPVVPEESFVHPTAVLIGDVILGKGVYVGPNASLRGDFGRIVVKDGANIQDNCVMHGFPEQDTVVGEDGHIGHSAILHGCIIRRNALVGMNAVVMDGAVIGENSIVGASAFVKAKAEMPANYLIVGSPAKAIRELSEQELAWKKQGTHEYQVLVTRCKQTLHQVEPLREIEPGRKRLVFDENLRPKQ
total protein half-life in vivo [1]: 5.05 ± 0.96 h
total protein half-life in vivo [2]: 4.12 ± 0.18 h
total protein half-life in vivo [3]: 4.15 ± 0.16 h
total protein half-life in vivo [4]: 5.43 ± 0.8 h
total protein half-life in vivo [5]: 3.9 ± 0.21 h
total protein half-life in vivo [6]: 3.49 ± 0.39 h
total protein half-life in vivo [8]: 11.6 ± 2.7 h
total protein half-life in vivo [9]: 4.19 ± 0.87 h
total protein half-life in vivo [10]: 6.81 h
total protein half-life in vivo [11]: 5.81 ± 0.34 h
total protein half-life in vivo [12]: 12.9 ± 0.92 h

MEQVVIVDAIRTPMGRSKGGAFRNVRAEDLSAHLMRSLLARNPALEAAALDDIYWGCVQQTLEQGFNIARNAALLAEVPHSVPAVTVNRLCGSSMQALHDAARMIMTGDAQACLVGGVEHMGHVPMSHGVDFHPGLSRNVAKAAGMMGLTAEMLARMHGISREMQDAFAARSHARAWAATQSAAFKNEIIPTGGHDADGVLKQFNYDEVIRPETTVEALATLRPAFDPVNGMVTAGTSSALSDGAAAMLVMSESRAHELGLKPRARVRSMAVVGCDPSIMGYGPVPASKLALKKAGLSASDIGVFEMNEAFAAQILPCIKDLGLIEQIDEKINLNGGAIALGHPLGCSGARISTTLLNLMERKDVQFGLATMCIGLGQGIATVFERV
total protein half-life in vivo [1]: 4.38 ± 0.27 h
total protein half-life in vivo [2]: 3.05 ± 0.081 h
total protein half-life in vivo [3]: 2.922 ± 0.023 h
total protein half-life in vivo [4]: 2.52 ± 0.046 h
total protein half-life in vivo [5]: 3.22 ± 0.013 h
total protein half-life in vivo [6]: 3.36 ± 0.57 h
total protein half-life in vivo [7]: 5 ± 0.57 h
total protein half-life in vivo [8]: 9.67 ± 0.97 h
total protein half-life in vivo [9]: 3.18 ± 0.39 h
total protein half-life in vivo [10]: 4.39 ± 0.12 h
total protein half-life in vivo [11]: 5.97 ± 0.56 h
total protein half-life in vivo [12]: 11.5 ± 0.95 h

MKTVRESTTLYNFLGSHNPYWRLTESSDVLRFSTTETTEPDRTLQLSAEQAARIREMTVITSSLMMSLTVDESDLSVHLVGRKINKREWAGNASAWHDTPAVARDLSHGLSFAEQVVSEAHSAIVILDSRGNIQRFNRLCEDYTGLKEHDVIGQSVFKLFMSRREAAASRRNNRVFFRSGNAYEVELWIPTCKGQRLFLFRNKFVHSGSGKNEIFLICSGTDITEERRAQERLRILANTDSITGLPNRNAMQDLIDHAINHADNNKVGVVYLDLDNFKKVNDAYGHLFGDQLLRDVSLAILSCLEHDQVLARPGGDEFLVLASNTSQSALEAMASRILTRLRLPFRIGLIEVYTSCSVGIALSPEHGSDSTAIIRHADTAMYTAKEGGRGQFCVFTPEMNQRVFEYLWLDTNLRKALENDQLVIHYQPKITWRGEVRSLEALVRWQSPERGLIPPLDFISYAEESGLIVPLGRWVILDVVRQVAKWRDKGINLRVAVNISARQLADQTIFTALKQVLQELNFEYCPIDVELTESCLIENDELALSVIQQFSQLGAQVHLDDFGTGYSSLSQLARFPIDAIKLDQVFVRDIHKQPVSQSLVRAIVAVAQALNLQVIAEGVESAKEDAFLTKNGINERQGFLFAKPMPAVAFERWYKRYLKRA
total protein half-life in vivo [1]: 6.59 ± 1.2 h
total protein half-life in vivo [2]: 2.14 h
total protein half-life in vivo [3]: 2.36 ± 0.18 h
total protein half-life in vivo [4]: 3.107 ± 0.019 h
total protein half-life in vivo [5]: 1.94 ± 0.029 h
total protein half-life in vivo [6]: 1.58 ± 0.59 h
total protein half-life in vivo [7]: 4.6 ± 2.3 h
total protein half-life in vivo [8]: 5.35 h
total protein half-life in vivo [9]: 3.27 ± 0.56 h
total protein half-life in vivo [10]: 3.63 h

MTNSNRIKLTWISFLSYALTGALVIVTGMVMGNIADYFNLPVSSMSNTFTFLNAGILISIFLNAWLMEIVPLKTQLRFGFLLMVLAVAGLMFSHSLALFSAAMFILGVVSGITMSIGTFLVTQMYEGRQRGSRLLFTDSFFSMAGMIFPMIAAFLLARSIEWYWVYACIGLVYVAIFILTFGCEFPALGKHAPKTDAPVEKEKWGIGVLFLSVAALCYILGQLGFISWVPEYAKGLGMSLNDAGTLVSNFWMSYMVGMWAFSFILRFFDLQRILTVLAGLAAILMYVFNTGTPAHMAWSILALGFFSSAIYTTIITLGSQQTKVPSPKLVNFVLTCGTIGTMLTFVVTGPIVEHSGPQAALLTANGLYAVVFVMCFLLGFVSRHRQHNTLTSH
total protein half-life in vivo [1]: 5.5 h
total protein half-life in vivo [2]: 5.55 h
total protein half-life in vivo [3]: 5.855 ± 0.027 h
total protein half-life in vivo [4]: 5.47 ± 0.58 h
total protein half-life in vivo [5]: 5.72 ± 0.19 h
total protein half-life in vivo [9]: 6.5 ± 0.71 h
total protein half-life in vivo [11]: 6.42 ± 1.5 h
total protein half-life in vivo [12]: 13.3 h

MSTLEQTIGNTPLVKLQRMGPDNGSEVWLKLEGNNPAGSVKDRAALSMIVEAEKRGEIKPGDVLIEATSGNTGIALAMIAALKGYRMKLLMPDNMSQERRAAMRAYGAELILVTKEQGMEGARDLALEMANRGEGKLLDQFNNPDNPYAHYTTTGPEIWQQTGGRITHFVSSMGTTGTITGVSRFMREQSKPVTIVGLQPEEGSSIPGIRRWPTEYLPGIFNASLVDEVLDIHQRDAENTMRELAVREGIFCGVSSGGAVAGALRVAKANPDAVVVAIICDRGDRYLSTGVFGEEHFSQGAGI
total protein half-life in vivo [1]: 6.17 ± 1.7 h
total protein half-life in vivo [2]: 4.5 ± 0.098 h
total protein half-life in vivo [3]: 4.55 ± 0.61 h
total protein half-life in vivo [4]: 4.81 ± 0.087 h
total protein half-life in vivo [5]: 4.19 ± 0.058 h
total protein half-life in vivo [6]: 2.95 ± 0.34 h
total protein half-life in vivo [7]: 6.01 ± 0.21 h
total protein half-life in vivo [8]: 10.2 ± 0.28 h
total protein half-life in vivo [9]: 4.66 ± 0.086 h
total protein half-life in vivo [10]: 7.44 ± 0.39 h
total protein half-life in vivo [11]: 5.64 ± 0.13 h
total protein half-life in vivo [12]: 11.6 ± 0.56 h
